Results on 4 molecules are retold here after patent US20180282402A1 (ATYR PHARMA, published 2018).

No end group written: not given here.

For assay [1], the target named is T1, NRP2-Fc (R&D Systems #2215-N2) (human, UniProt O60462 23-864, limits assumed).
T1 construct: Bought reagent used as NRP2 in the SPR experiments; also called human NRP2; Neuropilin 2; not shown: Fc
The assay is described as follows: SPR: NRP2 as analyte over immobilized WARS WHEP [panel D]. (In general: In SPR one partner is held on a chip, and binding of the other changes the refractive index at the surface.)

Assay [2] has as its target T1, NRP2-Fc (R&D Systems #2215-N2). The assay can be described thus: SPR: NRP2 as analyte over immobilized MARS Fc-WHEP [panel C].
The target of assay [3] is T2, NRP1-His (R&D Systems #3870-N1) (human, UniProt O14786-2 22-644).
T2 construct: not shown: His tag
The assay can be described thus: SPR: NRP1 as analyte over immobilized Fc-HRS(2-60).

For assay [4], the target named is T3, Rat NRP2-Fc-His (R&D Systems #567-N2) (rat, UniProt O35276 23-858, limits assumed).
T3 construct: not shown: Fc and His tag
T3 sequence (looked up): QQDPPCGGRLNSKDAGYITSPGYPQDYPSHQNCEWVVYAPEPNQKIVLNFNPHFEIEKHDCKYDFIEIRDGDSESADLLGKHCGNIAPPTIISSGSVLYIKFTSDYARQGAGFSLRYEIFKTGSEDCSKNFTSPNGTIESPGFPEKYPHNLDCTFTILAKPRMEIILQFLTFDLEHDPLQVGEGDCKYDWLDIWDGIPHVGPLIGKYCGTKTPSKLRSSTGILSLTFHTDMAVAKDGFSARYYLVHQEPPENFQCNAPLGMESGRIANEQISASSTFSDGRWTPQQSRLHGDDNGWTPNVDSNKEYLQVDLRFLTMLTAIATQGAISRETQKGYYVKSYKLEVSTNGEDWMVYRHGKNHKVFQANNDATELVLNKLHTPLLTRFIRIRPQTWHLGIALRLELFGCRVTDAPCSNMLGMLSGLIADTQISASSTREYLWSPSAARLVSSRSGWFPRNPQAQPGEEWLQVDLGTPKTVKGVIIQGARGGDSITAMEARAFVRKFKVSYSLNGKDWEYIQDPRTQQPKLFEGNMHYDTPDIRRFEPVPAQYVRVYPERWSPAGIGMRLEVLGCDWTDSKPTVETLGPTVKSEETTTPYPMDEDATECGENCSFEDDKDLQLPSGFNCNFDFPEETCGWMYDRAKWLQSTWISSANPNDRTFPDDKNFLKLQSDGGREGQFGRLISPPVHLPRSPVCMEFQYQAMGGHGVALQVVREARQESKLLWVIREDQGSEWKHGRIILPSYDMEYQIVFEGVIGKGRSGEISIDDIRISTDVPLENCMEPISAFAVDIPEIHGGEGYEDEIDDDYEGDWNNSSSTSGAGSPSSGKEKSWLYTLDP
The assay is described as follows: SPR: 50 nM rat NRP2 as analyte over immobilized Fc-HRS(2-60) [panel A].

For assay [5], the target named is T4, NRP2a-GFP fusion protein on HEK293T cells (human, UniProt O60462 23-931).
T4 construct: Transiently expressed; cells fixed before staining; also called NRP2v2-GFP; cell-expressed NRP2a; not shown: GFP (Origene RG220706, NM_003872 ORF clone)
The assay can be described thus: immunofluorescence microscopy (IN Cell Analyzer) on fixed HEK293T cells expressing NRP2v2-GFP, GFP-bright gate; Fc-HRS(2-60) titrated in 2-fold steps and complexed with anti-Fc-PE [panel A]. The method, then: HEK293T cells previously transfected with NRP2v2-GFP were passed the night before staining to 96 well Greiner Clear flat bottomed Microplates pre-coated with collagen coating solution. Supernatants were removed and cells were washed 1 time with binding buffer. Cells were then fixed with 50 μL of 3.7% methanol-free formaldehyde for 20 minutes at room temperature. Cells were washed 2× with binding buffer and then blocked with 100 μL of blocking buffer for 1 hour at room temperature. The cells were then washed one time with binding buffer and then incubated with 50 μL of staining complex overnight at 4 degrees Celsius. Cells were then washed 3 times with binding buffer, and then nuclei were counter stained with […] Hoechst diluted in DPBS for 10 minutes at room temperature. The Hoechst stain was replaced with 1×PBS and subsequently read on an IN Cell Analyzer 2200. 20× images were acquired and analyzed using In Cell Analyzer 1000 Workstation software. Segmentation of the cell mask was achieved using the GFP channel, and the average PE signal intensity was determined within this mask above a threshold intensity of 5000 (termed GFP Bright cells).

Assay [6] has as its target T5, Mouse PLXNA1-His (R&D Systems #4309-PA) (mouse, UniProt P70206 28-1242, limits assumed).
T5 construct: also called mouse Plexin A1; not shown: His tag
The assay can be described thus: SPR: mouse Plexin A1 as analyte over immobilized Fc-HRS(2-60).

For assay [7], the target named is T6, Neuropilin 2A (NRP2A, NM_003872.2) on cells (human, UniProt O60462 23-931).
T6 construct: Used here for the Retrogenix HEK293 array and for the untagged NRP2v2 stably expressed on Expi293 cells; also called NRP2 variant 2; NRP2v2
The assay can be described thus: Retrogenix cell microarray on HEK293 cells, sequential staining, 20 ug/ml test protein, AF647 anti-human IgG Fc detection. The method, then: The detection antibody was used at screening concentrations of 2, 5, and 20 μg/ml, as more fully described below.
Primary hits (duplicate spots) were identified by analyzing fluorescence intensity in the AlexaFluor 647 and ZsGreen1 emission channels using the ImageQuant system, following standard fluorescent methodology. […] Additionally all vectors encoding all hits, plus control vectors, were spotted in duplicate on new slides, and used to reverse transfect human HEK293 cells as before.

In assay [8] the target is T1, NRP2-Fc (R&D Systems #2215-N2). The assay is described as follows: SPR: NRP2 as analyte over immobilized GARS Fc-WHEP [panel B].

T5 sequence (P70206 28-1242 limits assumed): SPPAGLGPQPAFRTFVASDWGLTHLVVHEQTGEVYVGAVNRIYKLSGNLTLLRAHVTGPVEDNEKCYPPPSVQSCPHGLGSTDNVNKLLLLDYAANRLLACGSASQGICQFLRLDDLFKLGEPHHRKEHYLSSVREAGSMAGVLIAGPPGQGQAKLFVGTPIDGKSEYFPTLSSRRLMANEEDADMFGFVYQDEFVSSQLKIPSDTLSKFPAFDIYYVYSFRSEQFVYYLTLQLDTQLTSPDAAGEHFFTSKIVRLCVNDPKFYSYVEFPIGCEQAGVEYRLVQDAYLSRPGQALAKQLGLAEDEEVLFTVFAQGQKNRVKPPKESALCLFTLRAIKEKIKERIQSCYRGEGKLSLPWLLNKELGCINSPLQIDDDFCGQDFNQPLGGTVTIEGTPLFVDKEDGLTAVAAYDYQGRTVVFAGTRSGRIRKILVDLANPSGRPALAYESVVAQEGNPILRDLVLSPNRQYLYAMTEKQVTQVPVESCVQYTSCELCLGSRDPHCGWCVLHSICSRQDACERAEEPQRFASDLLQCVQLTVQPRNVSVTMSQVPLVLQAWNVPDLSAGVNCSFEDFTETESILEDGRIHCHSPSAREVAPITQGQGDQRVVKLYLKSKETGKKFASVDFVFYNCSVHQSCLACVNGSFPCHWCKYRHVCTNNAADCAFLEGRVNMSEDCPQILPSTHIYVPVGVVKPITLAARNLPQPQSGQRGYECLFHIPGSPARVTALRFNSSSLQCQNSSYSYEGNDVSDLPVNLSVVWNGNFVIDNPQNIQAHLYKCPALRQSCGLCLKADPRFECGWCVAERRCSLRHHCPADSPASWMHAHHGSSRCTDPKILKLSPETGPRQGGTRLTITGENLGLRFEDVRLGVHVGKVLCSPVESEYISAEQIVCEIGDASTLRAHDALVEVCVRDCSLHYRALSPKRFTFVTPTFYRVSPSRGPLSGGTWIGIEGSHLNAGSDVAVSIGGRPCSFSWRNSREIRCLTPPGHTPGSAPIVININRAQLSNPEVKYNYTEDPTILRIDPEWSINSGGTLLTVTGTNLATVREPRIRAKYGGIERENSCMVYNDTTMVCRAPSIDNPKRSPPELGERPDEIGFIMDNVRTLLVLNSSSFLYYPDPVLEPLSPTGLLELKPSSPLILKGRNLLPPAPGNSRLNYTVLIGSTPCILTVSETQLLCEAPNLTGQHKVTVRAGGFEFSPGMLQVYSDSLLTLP

B1: WARS WHEP (other, UniProt P23381 8-64, looked up)
chain: SLLELFNSIATQGELVRSLKAGNASKDEIDSAVKMLVSLKMSYKAAAGEDYKADCPP
notes: domain: WHEP domain; also called WHEP domain of WARS with a V5/His tag; not shown: V5/His tag
B1: the binding result in assay [1] is reported as “no binding (tested: 20 nM)”.

B2: MARS Fc-WHEP (Fc fusion, UniProt P56192 841-897, looked up)
chain: QIQALMDEVTKQGNIVRELKAQKADKNEVAAEVAKLLDLKKQLAVAEGKPPEAPKGK
notes: domain: WHEP domain; not shown: Fc domain
Take B2: the binding result in assay [2] is “no binding (tested: 20 nM)”.

B3: Fc-HRS(2-60) (Fc fusion)
chain: {human IgG Fc}-AERAALEELVKLQGERVRGLKQQKASAELIEEEVAKLLKLKAQLGPDESKQKFVLKTPK
modifications: also: linker to Fc not given here, biotinylated for flow assay (maleimide-PEG11-biotin, ~3.35 per molecule)
notes: Fc at the N-terminus, HRS residues 2-60 (WHEP domain) at the C-terminus; in the imaging assay pre-complexed with anti-Fc-PE; also called HRS-Fc fusion protein construct; ATYR1923; not shown: human IgG Fc region
B3: the binding result in assay [3] is listed as “no binding (tested: 50 nM)”; in assay [4], “binds”; in assay [5], “binds”; in assay [6], “no binding (tested: 50 nM)”; in assay [7], “binds”.

B4: GARS Fc-WHEP (Fc fusion, UniProt P41250 63-119, looked up)
chain: VLAPLRLAVRQQGDLVRKLKEDKAPQVDVDKAVAELKARKRVLEAKELALQPKDDIV
notes: as for B2
For B4, the binding result in assay [8] is listed as “no binding (tested: 20 nM)”.
